Measurements: patent publication CN112250763A (SANYOU BIOPHARMACEUTICALS SHANGHAI CO LTD; SHANGHAI ZJ BIO …, dated 2021)

Target: S蛋白RBD-His(319Arg-532Asn) (SARS-CoV-2, UniProt P0DTC2 319-532)

B1: R16-F10抗体 (antibody, V domains shown)
VH: QVQLVQSGPEVKEPGSSVKVSCKASGGTFDTAAISWVRQAPGQGPEWMGGIIPIFGTANYAQKFQGRVTITADESTSTAYMELSSLRSEDTAVYYCAREHTVAPVYGFDVWGQGTLVTVSS
VL: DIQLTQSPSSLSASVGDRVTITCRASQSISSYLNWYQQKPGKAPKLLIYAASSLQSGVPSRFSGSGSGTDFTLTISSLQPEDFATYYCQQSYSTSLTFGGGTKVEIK
- EC50: 0.05 µg/mL
